Measurements taken from US20260234242A1 (HAINAN SIMCERE ZAIMING PHARMACEUTICAL, published 2026).

T1: human CDH6 on tumor cells (OVCAR3 cells, PA-1 cells) (human, UniProt P55285 54-790)
T1 sequence: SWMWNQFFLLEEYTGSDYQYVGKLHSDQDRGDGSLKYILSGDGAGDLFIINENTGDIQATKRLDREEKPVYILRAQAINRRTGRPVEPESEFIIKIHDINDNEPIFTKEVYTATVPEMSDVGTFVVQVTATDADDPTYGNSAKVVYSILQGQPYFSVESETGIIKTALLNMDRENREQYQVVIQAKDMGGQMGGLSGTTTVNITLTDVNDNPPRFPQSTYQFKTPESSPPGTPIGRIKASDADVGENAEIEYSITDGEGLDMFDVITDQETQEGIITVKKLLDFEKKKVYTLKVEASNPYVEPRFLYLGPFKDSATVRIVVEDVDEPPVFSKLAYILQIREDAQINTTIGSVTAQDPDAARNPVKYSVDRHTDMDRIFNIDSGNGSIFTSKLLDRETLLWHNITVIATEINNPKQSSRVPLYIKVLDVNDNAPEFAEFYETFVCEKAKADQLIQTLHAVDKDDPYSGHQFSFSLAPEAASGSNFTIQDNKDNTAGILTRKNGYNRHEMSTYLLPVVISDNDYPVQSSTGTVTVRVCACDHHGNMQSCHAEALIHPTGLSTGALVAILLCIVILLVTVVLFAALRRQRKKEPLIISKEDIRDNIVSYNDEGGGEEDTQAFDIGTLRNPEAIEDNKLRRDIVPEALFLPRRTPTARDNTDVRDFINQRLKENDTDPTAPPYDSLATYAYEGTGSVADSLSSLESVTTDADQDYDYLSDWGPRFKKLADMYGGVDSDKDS

T2: his-tagged human CDH6 extracellular region protein (hCDH6 ECD-his) (human, UniProt P55285 19-615)
T2 construct: also called Human CDH6-his; hCDH6-his; not shown: his tag
T2 sequence: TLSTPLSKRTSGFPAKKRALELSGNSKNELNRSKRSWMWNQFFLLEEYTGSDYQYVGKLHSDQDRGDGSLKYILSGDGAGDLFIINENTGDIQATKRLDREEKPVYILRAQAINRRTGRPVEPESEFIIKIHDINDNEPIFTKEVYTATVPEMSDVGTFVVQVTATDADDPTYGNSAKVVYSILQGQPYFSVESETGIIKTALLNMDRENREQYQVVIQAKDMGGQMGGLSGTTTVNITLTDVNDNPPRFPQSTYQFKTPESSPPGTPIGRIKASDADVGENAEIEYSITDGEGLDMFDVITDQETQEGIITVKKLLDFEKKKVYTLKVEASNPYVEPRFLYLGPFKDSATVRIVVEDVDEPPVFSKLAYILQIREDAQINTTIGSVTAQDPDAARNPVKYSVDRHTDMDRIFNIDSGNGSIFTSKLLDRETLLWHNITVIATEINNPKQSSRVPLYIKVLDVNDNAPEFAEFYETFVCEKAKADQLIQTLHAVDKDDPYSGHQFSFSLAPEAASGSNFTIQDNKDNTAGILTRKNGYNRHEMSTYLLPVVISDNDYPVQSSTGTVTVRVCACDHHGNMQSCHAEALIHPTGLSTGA

B1: CHI-CDH6-5 (antibody, human IgG1, kappa, V domains shown)
VH: QVQLQQSGAELVRPGTSVKMSCKAAEYTFTNYWIGWVKQRPGHGLEWIGDLYPGGDHANYNEKFEGKATLTADTSSSTAYMQLSSLTSEDSAIYYCARGMLTTGFDSWGQGTTLTVSS
VL: DIVMSQSPSSLAVSAGEKVTMSCKSSQSLFNSRTRKNYLAWYQQKPGQSPKLLIYWASTRESGVPDRFTGSGSGTDFTLTISSVQAEDLAVYYCKQSYYLRTFGGGTKLEIKR
notes: also called CH1-CDH6-5; chimeric antibody of murine CDH6-5
B2: CHI-CDH6-7 (antibody, human IgG1, kappa, V domains shown)
VH: EVKLVESGGGLVKPGGSLKVSCAASGFTFSDHGMAWVRQAPGKGPEWVAFISNLAYSIYYADTVTGRFTISRENAKNTLYLEMSSLRSEDTAMYYCARVYVKWYFDVWGAGTTVTVSS
VL: DIQMTQSPASLSASVGETVTITCRASENIDSYLAWYQQKQGKSPQLLVFAATLLADGVPSRFSGSGSGTQYSLKINSLQSEDVARYYCQHYYSTPLTFGAGTKLELKR
notes: also called CH1-CDH6-7; chimeric antibody of murine CDH6-7
B3: DS-H01L02 (antibody, human IgG1, kappa, V domains shown)
VH: EVQLVQSGAEVKKPGASVKVSCKASGYTFTRNFMHWVRQAPGQGLEWMGWIYPGDGETEYAQKFQGRVTITADTSTSTAYMELSSLRSEDTAVYYCARGVYGGFAGGYFDFWGQGTLVTVSS
VL: DIQMTQSPSSLSASVGDRVTITCKASQNIYKNLAWYQQKPGKAPKLLIYDANTLQTGVPSRFSGSGSGSDFTLTISSLQPEDFATYFCQQYYSGWAFGQGTKVEIKR
notes: Positive control, variable regions from WO2018212136A1; also called positive control anti-human CDH6 antibody
B4: CHI-CDH6-12 (antibody, human IgG1, kappa, V domains shown)
VH: EVNLVESGGGLVQPGDSLTLSCSASGFTFTDYYMSWVRQFPGKALEWLALIRNKANSYTTEYSASVKGRFTISRDNSQSILYLQMNALRAEDSATYYCARDSYYSHDGFAYWGQGTLVTVSA
VL: DIVLTQSPASLAVSLGQRATISCRASKSVSTSSYTYMHWYQQKPGQPPKLLIKFASYLESGVPARFSGSGSGTDFTLNIHPVEEEDAATYYCQHSREFPFTFGTGTKLEIKR
notes: also called CH1-CDH6-12; chimeric antibody of murine CDH6-12

How the values were obtained:
[1] = target: T1, human CDH6 on tumor cells (OVCAR3 …); assay: FACS, OVCAR3 cells, 4° C. arm of endocytosis assay, antibody diluted to 10 µg/mL
Experimental: OVCAR3 cells were cultured until a confluence of 90% was reached, the medium was removed by pipetting, the cells were washed once with PBS, and then treated with an enzyme-free cell dissociation solution (Versene, purchased from Gibco, Cat. No. 15040-066) and the cells were collected. The cells were washed once with PBS, counted, resuspended to 2×10⁶ cells/mL in an FACS buffer (PBS+2% FBS), and then added to two 96-well plates at 50 μL/well. The chimeric antibodies were diluted with FACS buffer (PBS+2% FBS) to 10 μg/mL and separately added to the two 96-well plates at 50 μL/well, and the plates were incubated at 4° C. for 1 h. After the cells were washed 3 times with PBS, the cells were resuspended in an FACS buffer. One 96-well plate was incubated at 4° C. for 1 h, and the other 96-well plate was incubated at 37° C. for 1 h. […] After the plates were centrifuged and washed 2 times with PBS, the cells were resuspended in an FACS buffer. The mean fluorescence intensity (MFI) was measured using FACS Canton II (BD). The chimeric antibodies tested all had good endocytic activity.

[2] = target: T2, his-tagged human CDH6 extracellular …; assay: ELISA, coated antigen; ELISA, hCDH6 ECD-his coated at 1 µg/mL, antibody in solution
Experimental: Human CDH6 protein (hCDH6 ECD-his, conventionally synthesized), monkey CDH6 protein (cynoCDH6 ECD-his, conventionally synthesized; the cynoCDH6 ECD sequence was derived from Uniprot #A0A2K5TW62 (19-615)), and murine CDH6 protein (mCDH6 ECD-his, conventionally synthesized; the mCDH6 ECD sequence was derived from Uniprot #P97326 (19-615)) were diluted with PBS to a final concentration of 1 μg/mL, and added to a 96-well ELISA plate at 100 μL/well. The plate was incubated at 4° C. overnight. The next day, the plate was washed 3 times with a plate washing solution (PBS+0.01% (v/v) Tween 20), and a blocking buffer (PBS+0.01% (v/v) Tween 20+2% (w/w) BSA) was added for blocking at room temperature for 2 h. The blocking buffer was discarded, and the plate was washed 3 times. The chimeric antibodies were diluted with 1% BSA+PBS (purchased from Cytiva, Cat. No. SH30264.01) and added to the 96-well plate at 50 μL/well. After incubation at 37° C. for 2 h, the plate was washed 3 times with a plate washing solution. […] The plate was incubated at 37° C. for 1 h and then washed 5 times with a plate washing solution. A TMB substrate (purchased from Seracare, Cat. No. 5120-0077) was added at 50 μL/well and incubated at room temperature for 10 min, then a stop solution (1.0 N HCl) was added at 50 μL/well. OD450 nm values were read using a microplate reader (Biotek). Analysis was performed by the GraphPad Prism software, data were fitted, and EC50 values were calculated. The chimeric antibodies tested all had strong binding to the human CDH6 protein, the monkey CDH6 protein, and the murine CDH6 protein.

MFI_4° C. [1] [MFI] | EC50 [2] [nM] | Binder
8810 | 0.043 | B1
5580 | 0.488 | B2
3830 | 0.168 | B3
5740 | 0.105 | B4
